# Key:
# [1] = biological target: mCherry-(GGS)6-Rac1(1-188)-His8 (UniProt P63000); experiment: membrane recruitment assay on supported lipid bilayers (TIRF microscopy); conditions: mCherry-Rac1 Q61L/P29S-His8 anchored on bilayers containing 2% Ni2+-NTA-DGS lipid; parent: est. 0.72; read off a plot
# [2] = biological target: EGFP-tagged WRC, wild type (Sra1, Nap1, MBP-EGFP-HSPC300, MBP-Abi2(1-158), MBP-WAVE1(1-230)), Q7L576;Q9Y2A7;Q8WUW1;Q9NYB9;Q92558; experiment: as above; conditions: WT EGFP-WRC; parent value is Rac1 WT loaded with GMPPNP (Rac1 WT GDP bar est. 0.045); parent: est. 0.23; read off a plot
# [3] = biological target: GST-Rac1(1-188) (Q61L/P29S) (UniProt P63000); experiment: pull-down; equilibrium pull-down (EPD): 0.1 μM ΔWRC230, 0.01 to 140 μM GST-Rac1(1-188) (Q61L/P29S), Glutathione Sepharose; 20 mM HEPES pH 7, 100 mM NaCl, 5% glycerol, 2 mM MgCl2, 5 mM β-mercaptoethanol, 0.05% Triton X100; 4°C, 30 min; unbound WRC in the supernatant quantified by SDS-PAGE; fits in DynaFit
# [4] = biological target: GST-Rac1(1-188) (Q61L/P29S) (UniProt P63000); experiment: other; GST-dimer model, KD,1; conditions: complex; chains chain;chain;chain;chain;chain
# [5] = biological target: GST-Rac1(1-188) (Q61L/P29S) (UniProt P63000); experiment: other; GST-dimer model, KD,2 (second WRC); conditions: complex; chains chain;chain;chain;chain;chain
substance,measurement,setting,value
"EGFP-tagged WRC, wild type (Sra1, Nap1, MBP-EGFP-HSPC300, MBP-Abi2(1-158), MBP-WAVE1(1-230)) (from UniProt Q7L576;Q9Y2A7;Q8WUW1;Q9NYB9;Q92558) C179R",response,[1],0.36
"EGFP-tagged WRC, wild type (Sra1, Nap1, MBP-EGFP-HSPC300, MBP-Abi2(1-158), MBP-WAVE1(1-230)) (from UniProt Q7L576;Q9Y2A7;Q8WUW1;Q9NYB9;Q92558) S969F",response,[1],0.8
"EGFP-tagged WRC, wild type (Sra1, Nap1, MBP-EGFP-HSPC300, MBP-Abi2(1-158), MBP-WAVE1(1-230)) (from UniProt Q7L576;Q9Y2A7;Q8WUW1;Q9NYB9;Q92558) Y967A",response,[1],0.12
mCherry-Rac1-His8 wild type (GMPPNP) Q61L; P29S,response,[2],0.72
"ΔWRC230 with Sra1 C179R (Sra1, Nap1, HSPC300, MBP-Abi2(1-158), MBP-WAVE1(1-230)), Q7L576 1-1253; Q9Y2A7 1-1128; Q8WUW1 1-75; Q9NYB9 1-158; Q92558 1-230",Kd,[3],265 nM
same,Kd,[4],201 nM
same,Kd,[5],144 nM
"ΔWRC230 with Sra1 Y967A (Sra1, Nap1, HSPC300, MBP-Abi2(1-158), MBP-WAVE1(1-230)), Q7L576 1-1253; Q9Y2A7 1-1128; Q8WUW1 1-75; Q9NYB9 1-158; Q92558 1-230","KD,A (A Site, first WRC, GST-dimer model)",[3],11500 nM
same,"KD,A (A Site, single-site model)",[3],10800 nM
same,"KD,A (A Site, two-site model)",[3],9600 nM
same,"KD,A’ (A Site of the second WRC, GST-dimer model)",[3],33 nM
"ΔWRC230, wild type (Sra1, Nap1, HSPC300, MBP-Abi2(1-158), MBP-WAVE1(1-230)), Q7L576 1-1253; Q9Y2A7 1-1128; Q8WUW1 1-75; Q9NYB9 1-158; Q92558 1-230","KD,A(D) (A Site of the D Site-bound WRC, sequential two-site model)",[3],262 nM
same,"KD,D (D Site, sequential two-site model)",[3],169 nM
same,"KD,D (D Site, single-site model)",[3],106 nM
same,Kd,[4],67 nM

# From article PMC5614565
